Experimental data from paper PMC4945878.

Columns and labels:
[1] = biological target: Claspin Cdel2 (human, UniProt Q9HAW4 1-1339, del1101-1209); experiment: EMSA; higher binding than full-length; 10 mM Tris-HCl pH 7.5, 40 ug/ml BSA, 1 mM DTT, EDTA (50 mM as printed for EMSA; 0.5 mM for filter binding), 20 mM K-glutamate, 8% glycerol, 30 C, 1 h
[2] = biological target: Claspin #25 (N-terminal polypeptide) (human, UniProt Q9HAW4 1-896); experiment: EMSA; plus #13 DE/A (aa897-1209) 1.5 or 3 pmol, no significant inhibition; 10 mM Tris-HCl pH 7.5, 40 ug/ml BSA, 1 mM DTT, EDTA (50 mM as printed for EMSA; 0.5 mM for filter binding), 20 mM K-glutamate, 8% glycerol, 30 C, 1 h
Chain of Claspin #25 (N-terminal polypeptide) (Q9HAW4 1-896): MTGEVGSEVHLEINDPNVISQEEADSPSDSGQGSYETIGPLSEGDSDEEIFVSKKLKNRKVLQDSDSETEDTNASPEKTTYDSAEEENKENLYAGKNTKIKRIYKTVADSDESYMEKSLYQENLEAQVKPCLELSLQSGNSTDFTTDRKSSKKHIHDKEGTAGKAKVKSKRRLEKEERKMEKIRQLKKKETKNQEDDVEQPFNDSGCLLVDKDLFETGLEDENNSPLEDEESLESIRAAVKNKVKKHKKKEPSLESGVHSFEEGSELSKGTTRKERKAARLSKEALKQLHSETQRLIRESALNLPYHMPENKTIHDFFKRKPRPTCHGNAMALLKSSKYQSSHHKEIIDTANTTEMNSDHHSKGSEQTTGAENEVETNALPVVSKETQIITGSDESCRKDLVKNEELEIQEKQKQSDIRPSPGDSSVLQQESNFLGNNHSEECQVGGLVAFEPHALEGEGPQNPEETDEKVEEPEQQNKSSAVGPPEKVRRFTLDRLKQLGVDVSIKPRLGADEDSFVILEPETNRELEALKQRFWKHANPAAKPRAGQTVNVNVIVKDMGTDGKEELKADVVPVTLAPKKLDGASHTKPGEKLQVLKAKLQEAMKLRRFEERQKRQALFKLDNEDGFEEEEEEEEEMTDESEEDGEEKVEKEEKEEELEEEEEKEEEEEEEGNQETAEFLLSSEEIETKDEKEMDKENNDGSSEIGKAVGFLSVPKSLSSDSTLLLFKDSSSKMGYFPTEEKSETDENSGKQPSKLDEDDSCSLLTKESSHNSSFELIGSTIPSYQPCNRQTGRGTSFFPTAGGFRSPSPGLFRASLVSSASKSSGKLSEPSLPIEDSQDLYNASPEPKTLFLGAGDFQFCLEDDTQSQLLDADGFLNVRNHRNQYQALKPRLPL

[3] = biological target: Claspin wild-type full-length (human, UniProt Q9HAW4 1-1339); experiment: EMSA; 0.5 and 1.0 pmol protein, 20 fmol DNA; much lower affinity than C-terminal deletions; 10 mM Tris-HCl pH 7.5, 40 ug/ml BSA, 1 mM DTT, EDTA (50 mM as printed for EMSA; 0.5 mM for filter binding), 20 mM K-glutamate, 8% glycerol, 30 C, 1 h
Chain of Claspin wild-type full-length (Q9HAW4 whole entry): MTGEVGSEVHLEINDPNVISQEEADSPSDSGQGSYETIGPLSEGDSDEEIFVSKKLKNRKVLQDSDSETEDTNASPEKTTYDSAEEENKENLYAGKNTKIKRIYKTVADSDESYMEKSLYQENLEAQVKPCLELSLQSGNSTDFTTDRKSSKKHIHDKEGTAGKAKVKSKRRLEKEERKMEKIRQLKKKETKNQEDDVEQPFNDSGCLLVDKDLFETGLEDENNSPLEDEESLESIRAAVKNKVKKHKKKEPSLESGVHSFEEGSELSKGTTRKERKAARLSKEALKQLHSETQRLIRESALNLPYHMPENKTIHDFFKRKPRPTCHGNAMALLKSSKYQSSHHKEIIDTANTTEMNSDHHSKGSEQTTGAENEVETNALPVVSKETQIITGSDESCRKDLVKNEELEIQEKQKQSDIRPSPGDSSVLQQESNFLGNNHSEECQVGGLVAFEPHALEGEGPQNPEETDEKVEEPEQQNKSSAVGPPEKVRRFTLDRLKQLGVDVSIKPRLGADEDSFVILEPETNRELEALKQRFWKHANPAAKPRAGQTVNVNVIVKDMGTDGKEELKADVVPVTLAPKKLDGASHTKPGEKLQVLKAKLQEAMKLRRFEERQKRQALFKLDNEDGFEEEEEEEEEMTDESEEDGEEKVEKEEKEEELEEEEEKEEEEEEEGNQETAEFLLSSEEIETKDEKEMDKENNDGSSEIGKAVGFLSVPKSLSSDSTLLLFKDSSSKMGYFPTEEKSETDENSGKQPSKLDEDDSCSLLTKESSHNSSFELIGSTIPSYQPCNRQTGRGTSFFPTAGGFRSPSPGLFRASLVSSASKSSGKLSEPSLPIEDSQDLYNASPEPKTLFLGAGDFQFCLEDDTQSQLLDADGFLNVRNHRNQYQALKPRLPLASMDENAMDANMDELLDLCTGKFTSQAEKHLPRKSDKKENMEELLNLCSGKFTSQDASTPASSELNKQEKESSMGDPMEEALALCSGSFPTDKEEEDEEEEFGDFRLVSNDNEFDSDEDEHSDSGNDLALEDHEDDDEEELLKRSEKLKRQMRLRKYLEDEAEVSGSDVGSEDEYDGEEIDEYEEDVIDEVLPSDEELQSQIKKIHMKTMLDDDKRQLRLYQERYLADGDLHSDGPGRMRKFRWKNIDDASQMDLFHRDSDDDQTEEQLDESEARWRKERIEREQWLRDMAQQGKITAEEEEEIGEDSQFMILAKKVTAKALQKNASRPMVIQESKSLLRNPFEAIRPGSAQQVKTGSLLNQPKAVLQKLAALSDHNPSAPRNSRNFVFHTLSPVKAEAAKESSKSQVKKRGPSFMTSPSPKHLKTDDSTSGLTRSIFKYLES

[4] = biological target: Claspin Cdel1 (human, UniProt Q9HAW4 1-985+=GS+1210-1339, internal_change); experiment: EMSA; higher affinity than full-length; 10 mM Tris-HCl pH 7.5, 40 ug/ml BSA, 1 mM DTT, EDTA (50 mM as printed for EMSA; 0.5 mM for filter binding), 20 mM K-glutamate, 8% glycerol, 30 C, 1 h
Chain of Claspin Cdel1 (Q9HAW4 other isoform, or with tags, fused parts or gaps): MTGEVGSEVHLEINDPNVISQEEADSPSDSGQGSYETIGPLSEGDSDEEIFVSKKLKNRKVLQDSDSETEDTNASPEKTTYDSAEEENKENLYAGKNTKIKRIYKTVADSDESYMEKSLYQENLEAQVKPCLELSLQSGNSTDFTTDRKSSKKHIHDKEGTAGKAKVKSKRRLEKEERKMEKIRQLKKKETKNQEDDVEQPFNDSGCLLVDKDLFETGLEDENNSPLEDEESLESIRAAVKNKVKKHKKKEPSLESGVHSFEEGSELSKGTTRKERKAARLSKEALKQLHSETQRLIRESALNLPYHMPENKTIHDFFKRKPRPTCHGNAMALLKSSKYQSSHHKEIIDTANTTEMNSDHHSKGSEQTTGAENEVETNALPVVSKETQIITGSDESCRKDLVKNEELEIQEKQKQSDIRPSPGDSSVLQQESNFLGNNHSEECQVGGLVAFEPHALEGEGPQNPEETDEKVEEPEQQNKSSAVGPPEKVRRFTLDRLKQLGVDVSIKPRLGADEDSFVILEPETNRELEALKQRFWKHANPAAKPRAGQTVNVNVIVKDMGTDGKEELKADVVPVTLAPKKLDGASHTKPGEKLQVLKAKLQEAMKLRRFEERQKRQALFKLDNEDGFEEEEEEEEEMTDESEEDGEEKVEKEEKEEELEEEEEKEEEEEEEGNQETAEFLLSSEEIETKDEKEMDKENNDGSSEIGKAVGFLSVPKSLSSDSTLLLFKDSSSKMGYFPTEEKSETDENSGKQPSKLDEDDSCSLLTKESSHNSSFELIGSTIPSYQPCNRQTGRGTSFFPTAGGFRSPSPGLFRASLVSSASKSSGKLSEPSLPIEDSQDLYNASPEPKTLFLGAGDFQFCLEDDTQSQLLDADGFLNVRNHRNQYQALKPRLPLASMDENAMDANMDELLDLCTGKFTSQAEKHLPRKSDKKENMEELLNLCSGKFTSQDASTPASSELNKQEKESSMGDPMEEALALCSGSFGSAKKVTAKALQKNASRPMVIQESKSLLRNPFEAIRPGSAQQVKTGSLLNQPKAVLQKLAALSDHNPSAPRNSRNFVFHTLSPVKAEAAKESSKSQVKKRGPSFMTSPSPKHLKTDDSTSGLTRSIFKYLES

Measured: binding result

Chain of Claspin Cdel2 (Q9HAW4 other isoform, or with tags, fused parts or gaps del1101-1209): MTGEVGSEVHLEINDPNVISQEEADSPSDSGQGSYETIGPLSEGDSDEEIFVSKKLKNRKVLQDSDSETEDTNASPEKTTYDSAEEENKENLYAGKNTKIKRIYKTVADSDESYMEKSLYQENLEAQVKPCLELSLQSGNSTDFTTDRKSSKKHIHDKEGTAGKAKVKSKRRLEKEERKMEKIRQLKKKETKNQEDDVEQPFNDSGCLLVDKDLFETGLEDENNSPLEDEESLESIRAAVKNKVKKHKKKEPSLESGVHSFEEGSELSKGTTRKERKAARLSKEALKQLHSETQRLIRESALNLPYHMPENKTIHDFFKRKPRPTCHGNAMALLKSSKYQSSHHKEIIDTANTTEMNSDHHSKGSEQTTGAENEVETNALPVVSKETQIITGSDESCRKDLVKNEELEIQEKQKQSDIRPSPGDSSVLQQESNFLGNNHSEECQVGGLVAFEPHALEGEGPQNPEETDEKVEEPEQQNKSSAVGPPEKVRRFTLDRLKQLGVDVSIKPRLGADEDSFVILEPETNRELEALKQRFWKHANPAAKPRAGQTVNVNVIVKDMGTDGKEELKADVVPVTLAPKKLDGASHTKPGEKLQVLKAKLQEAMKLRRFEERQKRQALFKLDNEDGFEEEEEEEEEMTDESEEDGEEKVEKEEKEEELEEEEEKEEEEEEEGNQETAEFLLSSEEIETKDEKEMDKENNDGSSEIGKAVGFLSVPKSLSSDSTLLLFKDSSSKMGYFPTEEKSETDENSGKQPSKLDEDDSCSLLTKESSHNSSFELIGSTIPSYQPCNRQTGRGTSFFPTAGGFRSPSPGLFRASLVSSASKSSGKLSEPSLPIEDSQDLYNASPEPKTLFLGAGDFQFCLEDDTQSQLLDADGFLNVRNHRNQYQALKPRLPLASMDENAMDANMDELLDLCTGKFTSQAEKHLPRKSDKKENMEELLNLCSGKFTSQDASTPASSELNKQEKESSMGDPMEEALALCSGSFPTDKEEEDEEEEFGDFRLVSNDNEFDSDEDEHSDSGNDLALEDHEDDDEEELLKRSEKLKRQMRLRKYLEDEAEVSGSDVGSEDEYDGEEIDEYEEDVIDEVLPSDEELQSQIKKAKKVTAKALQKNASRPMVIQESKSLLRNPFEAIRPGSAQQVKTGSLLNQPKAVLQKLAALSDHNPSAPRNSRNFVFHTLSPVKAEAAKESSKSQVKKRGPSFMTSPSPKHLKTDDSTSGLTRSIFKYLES

B1: Y-fork DNA (mixed)
DNA 1: AACGTCGTGACTGGGCACTTGATCGGCCAACCTTTTTTTTTTTTTTTTTTTTTTTTTTTTTTTT
DNA 2: TTTTTTTTTTTTTTTTTTTTTTTTTTTTTTTTGGTTGGCCGATCAAGTGCCCAGTCACGACGTT
binds: [1] | [2] | [3] | [4]
